In IntAct's records for PubMed 18923430:

Target: dnjc3_mouse Dnajc3 (UniProt Q91YW3)
Sequence (Q91YW3 whole entry): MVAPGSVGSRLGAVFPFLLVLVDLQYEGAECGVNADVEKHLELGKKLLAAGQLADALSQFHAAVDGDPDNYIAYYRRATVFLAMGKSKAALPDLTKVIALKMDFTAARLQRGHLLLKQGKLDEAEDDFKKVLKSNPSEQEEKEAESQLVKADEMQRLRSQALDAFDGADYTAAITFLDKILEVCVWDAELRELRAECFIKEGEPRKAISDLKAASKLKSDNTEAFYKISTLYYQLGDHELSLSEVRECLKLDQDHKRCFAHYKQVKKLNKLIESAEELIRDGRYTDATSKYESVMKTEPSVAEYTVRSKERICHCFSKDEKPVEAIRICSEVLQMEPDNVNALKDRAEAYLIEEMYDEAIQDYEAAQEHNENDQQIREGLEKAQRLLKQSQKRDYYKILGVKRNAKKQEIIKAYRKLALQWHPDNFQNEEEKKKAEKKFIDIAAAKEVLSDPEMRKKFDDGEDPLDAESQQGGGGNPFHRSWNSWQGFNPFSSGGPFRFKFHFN

Endoplasmic reticulum chaperone BiP (Homo sapiens), P11021 E201G
effect of a mutation on the interaction: disrupting interaction
